From US20210060116A1 (published 2021)

Key:
[1] = molecular target: T1, Recombinant human p65 protein (r-p65) with DDK tag (catalog number TP320780) (human, UniProt Q04206 1-551); experiment: score table: the mark stands in the column >3 of KD (uM)
T1 construct: mature; also called r-p65-DDK; human r-p65; not shown: DDK tag

[2] = molecular target: T1, Recombinant human p65 protein (r-p65) …; experiment: score table: the mark stands in the column <3 of KD (uM)
[3] = molecular target: Recombinant human p65 protein (r-p65) with DDK tag (catalog number TP320780) (human) (UniProt Q04206); experiment: plate ELISA, Scatchard analysis by the method of Friguet et al.
[4] = molecular target: Recombinant human p65 protein (r-p65) with DDK tag (catalog number TP320780) (human) (UniProt Q04206); experiment: plate ELISA, peptide 20-640 µM and r-p65, anti-DDK detection; at the lowest concentration evaluated

T1 sequence (Q04206 whole entry): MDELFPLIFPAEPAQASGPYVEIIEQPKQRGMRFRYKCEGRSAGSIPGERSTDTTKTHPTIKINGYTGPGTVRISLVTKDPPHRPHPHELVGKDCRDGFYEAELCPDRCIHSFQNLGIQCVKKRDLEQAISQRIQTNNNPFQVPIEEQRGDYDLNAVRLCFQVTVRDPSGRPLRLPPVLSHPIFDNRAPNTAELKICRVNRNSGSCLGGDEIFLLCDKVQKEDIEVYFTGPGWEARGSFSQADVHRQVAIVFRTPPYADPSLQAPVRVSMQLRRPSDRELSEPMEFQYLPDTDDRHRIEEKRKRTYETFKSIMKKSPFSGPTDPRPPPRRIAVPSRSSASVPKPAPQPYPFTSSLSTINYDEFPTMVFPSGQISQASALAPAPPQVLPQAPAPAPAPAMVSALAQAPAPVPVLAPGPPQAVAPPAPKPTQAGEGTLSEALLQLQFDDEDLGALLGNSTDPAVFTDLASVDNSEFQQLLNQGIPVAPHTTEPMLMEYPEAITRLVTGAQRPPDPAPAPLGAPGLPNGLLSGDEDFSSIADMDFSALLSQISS
Chain of Recombinant human p65 protein (r-p65) with DDK tag (catalog number TP320780) (human) (Q04206 whole entry): as above

Binder: Ac-EPAPESPQV-NH2 (also called Analog 7) [PGA-4]
- Kd [1]: > 3 µM

Binder: Ac-EPAPLAPYG-NH2 (also called Analog 3; GA-2) [PGA-2]
- Kd [2]: < 3 µM

Binder: Ac-EPAPYQPEG-NH2 (also called Analog 14) [PGA-3]
- Kd [1]: > 3 µM

Binder: Ac-EPAPEQPDG-NH2 (also called Analog 8) [PGA-5]
- Kd [1]: > 3 µM

Binder: Ac-APKPYQPRG-NH2 [GA-1 (GILZ analog 1, as labelled in Examples 3 to 6)]
- Kd [3]: 2.29 µM
- percent bound r-p65 [4]: > 25%

Binder: Ac-EPAPLAPYG-NH2 [GA-2 (GILZ analog 2, as labelled in Examples 3 to 6)]
- Kd [3]: 3.24 µM
- percent bound r-p65 [4]: > 25%

Binder: Ac-APKPYQPRG-NH2 (also called Analog 20; GA-1) [PGA-1]
- Kd [1]: > 3 µM
